According to patent US20170327598A1 (published 2017):
Each block holds one molecule with its values, some of them ahead of it.

Legend:
[1] = molecular target: commercially available anti-Stat3 antibody (Abcam, Cambridge, Mass.); test: ELISA, antibody coated at 1 µg/mL, secondary antibody 1:5,000, Experiment 3
human STAT3 = human STAT3 (human, UniProt P40763 1-770, limits assumed); test: SPR, Biacore 3000
human STAT3 (Biacore) = human STAT3 (Biacore) (human, UniProt P40763 1-770, limits assumed); test: SPR
[2] = molecular target: human KRAS (normal human KRAS, full protein) (human, UniProt P01116-2 1-188, limits assumed); test: SPR, Biacore 3000
[3] = molecular target: endogenous STAT3 of the murine 4T1 cell line (murine, UniProt P42227 2-770); test: immunoprecipitation from 4T1 lysate, Western blot
Sequence of endogenous STAT3 of the murine 4T1 cell line (P42227 2-770 limits assumed): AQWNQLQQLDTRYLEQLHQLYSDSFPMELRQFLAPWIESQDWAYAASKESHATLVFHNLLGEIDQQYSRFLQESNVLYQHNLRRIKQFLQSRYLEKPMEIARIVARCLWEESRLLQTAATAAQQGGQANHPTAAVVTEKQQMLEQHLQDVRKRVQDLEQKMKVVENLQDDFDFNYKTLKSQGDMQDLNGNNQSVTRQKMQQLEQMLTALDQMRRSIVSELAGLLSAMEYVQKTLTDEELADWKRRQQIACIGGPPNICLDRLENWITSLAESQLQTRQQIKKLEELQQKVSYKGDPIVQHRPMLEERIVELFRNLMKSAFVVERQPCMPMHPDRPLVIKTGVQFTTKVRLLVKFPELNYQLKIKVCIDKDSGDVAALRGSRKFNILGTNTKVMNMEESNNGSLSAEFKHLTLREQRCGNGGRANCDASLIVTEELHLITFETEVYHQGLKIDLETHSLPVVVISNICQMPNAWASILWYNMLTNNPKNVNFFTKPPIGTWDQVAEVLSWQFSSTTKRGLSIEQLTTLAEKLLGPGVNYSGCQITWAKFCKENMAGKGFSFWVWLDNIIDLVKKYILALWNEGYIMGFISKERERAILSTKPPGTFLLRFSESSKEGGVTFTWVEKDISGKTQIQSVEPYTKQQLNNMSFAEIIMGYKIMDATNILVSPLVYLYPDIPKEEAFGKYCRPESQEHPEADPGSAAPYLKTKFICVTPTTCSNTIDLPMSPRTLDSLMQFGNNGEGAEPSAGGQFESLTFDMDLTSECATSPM

Molecule: his-probe (H-3) biotin labeled antibody
OD450 [1]: 0.018 OD450

B3: anti-STAT3 VHH13 (SEQ ID NO:3) sdAb (VHH)
VHH: HVQLVESGGGSVQAGGSLRLSCAASGANGGRSCMGWFRQVPGKEREGVSGISTGGLITYYADSVKGRFTISQDNTKNTLYLQMNSLKPEDTAMYYCATSRFDCYRGSWFNRYMYNSWGQGTQVTVSS
Kd [2]: 126 nM

B4: anti-STAT3 VHH13 (SEQ ID NO:3) sdAb (VHH)
VHH: HVQLVESGGGSVQAGGSLRLSCAASGANGGRSCMGWFRQVPGKEREGVSGISTGGLITYYADSVKGRFTISQDNTKNTLYLQMNSLKPEDTAMYYCATSRFDCYRGSWFNRYMYNSWGQGTQVTVSS
binding result [3]: binds

Results, then the molecule that gave them:

binding result (human STAT3): no binding (tested: 0-200 nM)
B1: anti-KRAS (G12D) (SEQ ID NO:2) sdAb (VHH)
VHH: EVQLVESGGGSVQTGGSLRLSCAVSGNIGSSYCMGWFRQAPGKKREAVARIVRDGATGYADYVKGRFTISRDSAKNTLYLQMNRLIPEDTAIYYCAADLPPGCLTQAIWNFGYRGQGTLVTVSS

binding result (human STAT3 (Biacore)): no binding
B2: anti-KRAS (G12D) (SEQ ID NO:2) sdAb (VHH)
VHH: EVQLVESGGGSVQTGGSLRLSCAVSGNIGSSYCMGWFRQAPGKKREAVARIVRDGATGYADYVKGRFTISRDSAKNTLYLQMNRLIPEDTAIYYCAADLPPGCLTQAIWNFGYRGQGTLVTVSS
